Reference: publication PMC9297724, “SARS-CoV-2 Epitopes following Infection and Vaccination Overlap Known Neutralizing Antibody Sites” (Research, 2022)
Where no end group is shown, it is not given here.

Target: T1, ACE2-Fc (human, UniProt Q9BYF1)
T1 construct: also called recombinant human ACE2; angiotensin converting enzyme-2; source: bought: GenScript
Assay: ELISA; ACE2-Fc (4 ug/mL) captured on goat anti-human IgG Fc coated plates; biotin-labeled S481 peptide in two-fold dilutions 2000-3.90 ng/mL in 1% BSA/0.05% PBST, 1 hour at room temperature; detected with HRP-streptavidin and TMB, absorbance at 450 nm
Conditions: both partners purified

T1 sequence (Q9BYF1 18-740): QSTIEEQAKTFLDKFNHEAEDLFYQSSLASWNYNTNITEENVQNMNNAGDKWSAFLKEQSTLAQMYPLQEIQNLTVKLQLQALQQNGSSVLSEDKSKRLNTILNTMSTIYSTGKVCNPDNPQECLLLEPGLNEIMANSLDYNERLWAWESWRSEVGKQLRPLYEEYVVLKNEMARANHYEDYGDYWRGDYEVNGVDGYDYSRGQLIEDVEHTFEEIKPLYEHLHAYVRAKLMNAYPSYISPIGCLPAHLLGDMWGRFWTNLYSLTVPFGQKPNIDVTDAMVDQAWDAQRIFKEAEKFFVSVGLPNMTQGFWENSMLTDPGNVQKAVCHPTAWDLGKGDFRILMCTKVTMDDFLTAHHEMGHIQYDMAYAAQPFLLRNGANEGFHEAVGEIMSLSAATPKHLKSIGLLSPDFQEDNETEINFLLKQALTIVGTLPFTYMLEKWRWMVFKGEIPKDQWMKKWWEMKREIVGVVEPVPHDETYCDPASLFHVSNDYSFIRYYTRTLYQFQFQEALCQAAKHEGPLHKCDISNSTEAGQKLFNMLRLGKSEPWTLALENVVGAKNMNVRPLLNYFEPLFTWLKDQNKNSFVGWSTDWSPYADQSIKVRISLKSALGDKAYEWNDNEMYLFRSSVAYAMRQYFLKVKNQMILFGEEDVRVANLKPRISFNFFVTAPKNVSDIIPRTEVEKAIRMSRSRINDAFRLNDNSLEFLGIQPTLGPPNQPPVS

Q: Does NGVEGFNCYFPLQSY (also: biotin label, position not given here, also called S481 peptide) [S481-495 peptide] bind?
A: binds
